Assay [1] deals with rabbit whole molecule IgG (rabbit). In words: SPR; IgG amine coupled to CM5 chip, control flowed at 490 ug/ml at the start of the serial flows; end-point RU of association phase. (In SPR one partner is held on a chip, and binding of the other changes the refractive index at the surface.)
The target in assay [2] is mouse whole molecule IgG (mouse). Described as above.
Assay [3] addresses human IgG Fc (human). The assay is described as above.
In assay [4] the target is guinea pig whole molecule IgG (guinea pig). The assay is described as above.
In assay [5] the target is human whole molecule IgG (human). The assay is described as above.
Assay [6] concerns the target rabbit whole molecule IgG (rabbit). In words: SPR; IgG amine coupled to CM5 chip, control flowed at 490 ug/ml at the end of the serial flows; end-point RU of association phase.
Assay [7] addresses mouse whole molecule IgG (mouse). The assay is described as above.
Assay [8] has as its target human IgG Fc (human). Described as above.
Assay [9] concerns the target guinea pig whole molecule IgG (guinea pig). The description is as above.
Assay [10] has as its target human whole molecule IgG (human). The description is as above.
For assay [11], the target named is rabbit whole molecule IgG (rabbit). Kind of assay: SPR; IgG amine-coupled to CM5 chip, control flowed at 490 ug/ml at the end of the serial flows; end-point RU of association phase.
The target in assay [12] is human IgG Fc (human). The description is as above.
For assay [13], the target named is human whole molecule IgG (human). The description is as above.
The target in assay [14] is rabbit whole molecule IgG (rabbit). In words: SPR; IgG amine-coupled to CM5 chip, control flowed at 490 ug/ml at the start of the serial flows; end-point RU of association phase.
The target in assay [15] is human whole molecule IgG (human). Described as above.
The target of assay [16] is rabbit whole molecule IgG (rabbit). The assay is described as above. This is another data set of the same source.
Assay [17] concerns the target human IgG Fc (human). The description is as above.
The target in assay [18] is human whole molecule IgG (human). The description is as above. The source holds these as a separate data set.
The target of assay [19] is rabbit whole molecule IgG (rabbit). Kind of assay: SPR; IgG amine-coupled to CM5 chip, control flowed at 490 ug/ml at the end of the serial flows; end-point RU of association phase. The source holds these as a separate data set.
In assay [20] the target is human IgG Fc (human). Described as above. This is another data set of the same source.
Assay [21] has as its target human whole molecule IgG (human). The assay is described as above. The source holds these as a separate data set.
For assay [22], the target named is rabbit whole molecule IgG (rabbit). Kind of assay: SPR; IgG amine coupled to CM5 chip, construct flowed at 750 ug/ml; end-point RU of association phase.
Assay [23] has as its target mouse whole molecule IgG (mouse). The description is as above.
The target of assay [24] is human IgG Fc (human). The description is as above.
In assay [25] the target is guinea pig whole molecule IgG (guinea pig). The description is as above.
The target of assay [26] is human whole molecule IgG (human). The assay is described as above.

The source of these data is patent US20220280636A1.

B1: gE-1t 411 (protein)
chain: GTPKTSWRRVSVGEDVSLLPAPGPTGRGPTQKLLWAVEPLDGCGPLHPSWVSLMPPKQVPETVVDAACMRAPVPLAMAYAPPAPSATGGLRTDFVWQERAAVVNRSLVIHGVRETDSGLYTLSVGDIKDPARQVASVVLVVQPAPVPTPPPTPADYDEDDNDEGEDESLAGTPASGTPRLPPPPAPPRSWPSAPEVSHVRGVTVRMETPEAILFSPGETFSTNVSIHAIAHDDQTYSMDVVWLRFDVPTSCAEMRIYESCLYHPQLPECLSPADAPCAASTWTSRLAVRSYAGCSRTNPPPRCSAEAHMEPVPGLAWQAASVNLEFRDASPQHSGLYLCVVYVNDHIHAWGHITISTAAQYRNAVVEQPLPQRGADLAEPTHPHVGAPPHA
Consider B1, for which the RU Post Association in assay [1] was 231 RU; in [2] it was 4 RU; with human IgG Fc (human) [3] it was 77 RU; in assay [4], 32 RU; in assay [5] it was 147 RU; in [6] it was 223 RU. Also, the RU Post Association in [7] amounted to 8 RU; with human IgG Fc (human) [8], 72 RU; in [9] it was 30 RU; in assay [10] it was 144 RU; in [11] it was 228 RU; with human IgG Fc (human) [12], 76 RU. The RU Post Association in [13] was found to be 152 RU; in [14], 221 RU; in [15] it was 145 RU; in assay [16], 228 RU; with human IgG Fc (human) [17] it was 80 RU; in assay [18] it was 157 RU. Besides, the RU Post Association in [19] was 221 RU; in the assay with human IgG Fc (human) [20], 75 RU; in assay [21], 150 RU.

B2: gE-1t 419 (protein)
chain: GTPKTSWRRVSVGEDVSLLPAPGPTGRGPTQKLLWAVEPLDGCGPLHPSWVSLMPPKQVPETVVDAACMRAPVPLAMAYAPPAPSATGGLRTDFVWQERAAVVNRSLVIHGVRETDSGLYTLSVGDIKDPARQVASVVLVVQPAPVPTPPPTPADYDEDDNDEGEDESLAGTPASGTPRLPPPPAPPRSWPSAPEVSHVRGVTVRMETPEAILFSPGETFSTNVSIHAIAHDDQTYSMDVVWLRFDVPTSCAEMRIYESCLYHPQLPECLSPADAPCAASTWTSRLAVRSYAGCSRTNPPPRCSAEAHMEPVPGLAWQAASVNLEFRDASPQHSGLYLCVVYVNDHIHAWGHITISTAAQYRNAVVEQPLPQRGADLAEPTHPHVGAPPHAPPTHGALR
Consider B2, for which the RU Post Association stood at 188 RU in assay [22]; 4 RU in assay [23]; 69 RU in the assay with human IgG Fc (human) [24]; 27 RU in [25]; 127 RU in assay [26].
